Reference: the supplement of paper PMC10724198
± gives the standard deviation of the averaged measurements.

What follows are sequences tested on Saccharomyces cerevisiae (assay: protein stability index of tFT-peptide fusion (C-terminal peptide) (PSI (0-1 scale)); higher = more stable (slower turnover)). Settings: genetic background: wild type; temperature: 30 C.
Experimental: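 Multiplexed protein stability (MPS) profiling in S. cerevisiae. Random 12-aa peptides (tFT-X12 library) are fused to the C-terminus of a sfGFP-mCherry tandem fluorescent timer, after mCherry and a GGGS linker. Cells are FACS-sorted into 8 mCherry/sfGFP bins and deep-sequenced. The protein stability index (PSI) is the read-weighted bin average, scaled from 0 (unstable) to 1 (stable). Only peptides with >10 reads are reported; cells were grown at 30 °C in SC-His with glucose.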
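Also: PSI is a weighted mean of sequencing reads over stability bins, variants kept only with over 10 reads, mCherry proximal and sfGFP distal, peptide attached via GGGS linker.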

Sequence	protein stability index
GGDAGGVFSRLC	0.632 ± 0.0096
TKIKKKKNKKQE	0.731 ± 0.0013
APDLPHSTNLPR	0.741 ± 0.024
LARLTRHSKLGL	0.712 ± 0.066
LTGGNPLTQDGD	0.689 ± 0.019
PQHLPFPSPAPP	0.711 ± 0.011
LCYTDMIRGCVF	0.65 ± 0.021
DWGGRRVTEEEG	0.641 ± 0.029
PPPLPPPHPSPI	0.669 ± 0.019
GNDICLVGARVV	0.6696 ± 0.0059
SFNLFFVVSPAL	0.608 ± 0.097
GSRVEVGLGVRC	0.712 ± 0.027
DPAPSPTGMCTR	0.688 ± 0.016
MANYIVEGGEPY	0.723 ± 0.025
FCFFGRPCLSSV	0.714 ± 0.14
RSPPAVSLVTIP	0.6911 ± 0.0052
PPDGRPQEVWVP	0.72 ± 0.037
CKPAGEGPTASM	0.678 ± 0.037
CVAAASPFRLLY	0.654 ± 0.04
GAGMAGEVVGDG	0.637 ± 0.026
FLGFGGAWSWGG	0.766 ± 0.16
HSRSRAEPHHPP	0.555 ± 0.037
SGVSICLSGMGK	0.611 ± 0.017
TSLGSFLCGMCR	0.6506 ± 0.0046
CGGSARAGVVFL	0.699 ± 0.066

Sequence	protein stability index
RGVSRQVRTVDP	0.679 ± 0.03
SPPLVFPTLLPL	0.7101 ± 0.0029
VMGIGAAVRRVR	0.713 ± 0.02
LTFSPPERLSFH	0.737 ± 0.12
PRLPPTDHAGAL	0.675 ± 0.04
GLERGRLGSGCG	0.652 ± 0.0075
LLWGSSPDGGQG	0.694 ± 0.019
GTEFIIDIQIFV	0.547 ± 0.02
FSHPLLRARRTW	0.656 ± 0.086
CGLVGVALSEGV	0.65 ± 0.086
FLSYPFLSRPFL	0.804 ± 0.058
VSLLSSDTRSAY	0.753 ± 0.07
HPSPTAPPSASN	0.66 ± 0.022
LPLPHAPPPPPT	0.7233 ± 0.0026
PSLPPPPHSAFC	0.698 ± 0.073
PYACQYVPCITT	0.5904 ± 0.004
PISIAVPCVLPP	0.6654 ± 0.00093
RDKAVAGKKGGS	0.682 ± 0.017
VDTGMAAGLTFG	0.685 ± 0.034
WGQCLYRSAGSV	0.715 ± 0.055
RTCRYRRVPAET	0.729 ± 0.066
LEVFSGNQSVLH	0.645 ± 0.094
ISVRAVDFGIAG	0.68 ± 0.033
LSFLAPGPPPAR	0.735 ± 0.039
PPSSPTRPSSPL	0.736 ± 0.051

Sequence	protein stability index
STVRFGAPDYVH	0.6774 ± 0.0026
SNTKLIGLIVIG	0.539 ± 0.043
TLTHKSVRLVVK	0.57119 ± 0.00034
PPTASPPPLSPL	0.691 ± 0.083
GVGGGGCVLVRG	0.723 ± 0.018
PLLPRPPPLPPP	0.703 ± 0.055
APSGVGANGWGR	0.654 ± 0.0085
VDWLCGGLGGVR	0.742 ± 0.11
VSPLVRVFSCAI	0.598 ± 0.033
IRVAWTPRSYDL	0.664 ± 0.038
VRCSAASLKVRK	0.675 ± 0.01
SGCSWRGSPVKE	0.636 ± 0.0076
SVESEWHLLLTP	0.744 ± 0.013
HECVRGLSFVLV	0.668 ± 0.081
GLKKRTIILSVK	0.532 ± 0.0056
VSLVYLDHLSRS	0.702 ± 0.029
GGGLSGEGGLGR	0.639 ± 0.014
PSYPTAPHHSAA	0.704 ± 0.043
PPDLPPPPPPPT	0.7 ± 0.055
GWKLGAVRRGVI	0.706 ± 0.015
FRGTLRFYRPVN	0.696 ± 0.016
AGIFGGGRGVSV	0.647 ± 0.039
SPSPHSPHPTPH	0.738 ± 0.085
PHFSSLPWAPPG	0.749 ± 0.041
GWGPSSAGGAGG	0.752 ± 0.12

Sequence	protein stability index
AGAGGGGAVVVG	0.637 ± 0.039
YRERSTIKITGN	0.671 ± 0.054
LSPFCIRSLRPD	0.647 ± 0.069
VCSFLSVDASPP	0.699 ± 0.018
LRSLSLSYVALR	0.6592 ± 0.0017
GTWAGGGWSCES	0.696 ± 0.039
LVPLFVLPYGHP	0.768 ± 0.073
FKIFSGLVTLGG	0.7337 ± 0.0036
NSVMSRGCGNRG	0.626 ± 0.044
ARPRSGIRGSGV	0.6848 ± 0.0048
YLCRLHLGGLSS	0.602 ± 0.0075
SSCAWGGGLEVG	0.683 ± 0.053
PFIYSLPAPLPF	0.72 ± 0.035
NPPCPYPPLRPR	0.595 ± 0.044
PQILTSRVAIKL	0.646 ± 0.068
FPHSPPFRLPLS	0.759 ± 0.089
VRDTTRTEKLGP	0.687 ± 0.002
APTRVDTAGSCV	0.676 ± 0.051
SHTNVILQDVTI	0.655 ± 0.087
PPSPPLPPLPPP	0.653 ± 0.0084
TPPPLPSPAPRP	0.715 ± 0.062
WGGWGRVWVKLG	0.701 ± 0.05
HHSAPARLAFRY	0.673 ± 0.023
